Experiment [1] concerns the target HLA-B*08:02. The experiment in a line: IEDB peptide-MHC binding, purified MHC/competitive/fluorescence; filed as Kd, often an IC50 or EC50 that approximates it; ≥ and ≤ were set here for values at or beyond the usual limits of such assays. The note with it: source organism: Human immunodeficiency virus 1.
The next experiment concerns the target HLA-A*26:03. Described as above. The following applies: source organism: Human immunodeficiency virus 1.
Experiment [2] concerns the target HLA-A*31:01. The experiment is described as above. The following applies: source organism: Human immunodeficiency virus 1.
The next experiment deals with HLA-A*26:01. The description is as above. The note with it: source organism: Human immunodeficiency virus 1.
The target in experiment [3] is HLA-A*11:01. The description is as above. The note with it: source organism: Human immunodeficiency virus 1.
The target in a further experiment is HLA-A*03:01. The description is as above. The following applies: source organism: Human immunodeficiency virus 1.
The target of a further experiment is HLA-A*30:01. The description is as above. The note with it: source organism: Human immunodeficiency virus 1.
For the next experiment, the target named is HLA-C*01:02. The experiment in a line: IEDB peptide-MHC binding, purified MHC/direct/fluorescence; filed as Kd, often an IC50 or EC50 that approximates it; ≥ and ≤ were set here for values at or beyond the usual limits of such assays. The note with it: source organism: Homo sapiens.
Experiment [4] addresses HLA-B*08:02. The experiment is described as above. The following applies: source organism: Mycobacterium tuberculosis str. Haarlem.
A further experiment concerns the target HLA-B*08:01. Described as above. The note with it: source organism: Mycobacterium tuberculosis str. Haarlem.
The target of the next experiment is HLA-B*07:02. The description is as above. The following applies: source organism: Mycobacterium tuberculosis.
Experiment [5] addresses HLA-A*31:01. The experiment is described as above. The note with it: source organism: Mycobacterium tuberculosis.
The next experiment concerns the target HLA-B*46:01. The experiment is described as above. The note with it: source organism: Mycobacterium tuberculosis.
The next experiment addresses HLA-B*27:05. The experiment is described as above. The following applies: source organism: Mycobacterium tuberculosis.
The target in experiment [6] is HLA-A*11:01. The experiment is described as above. The following applies: source organism: Mycobacterium tuberculosis.
The target of the next experiment is HLA-B*08:03. The experiment is described as above. The following applies: source organism: Mycobacterium tuberculosis str. Haarlem.
A further experiment concerns the target HLA-A*68:02. The experiment is described as above. The following applies: source organism: Mycobacterium tuberculosis.
Another experiment concerns the target HLA-B*40:01. Described as above. The following applies: source organism: Mycobacterium tuberculosis.
For the next experiment, the target named is HLA-B*48:01. The experiment is described as above. The following applies: source organism: Mycobacterium tuberculosis.
Another experiment deals with HLA-B*58:01. The description is as above. The note with it: source organism: Mycobacterium tuberculosis.
The target of a further experiment is HLA-B*57:01. Described as above. The note with it: source organism: Mycobacterium tuberculosis.

pKd: −log10 of the molar value.

In general, pKd refers to −log10 of the Kd, conventionally taken in molar units. A lower pKd goes with a high Kd.

As to IATLYCVHQR, the pKd with HLA-B*08:02 [1] was ≤ 4.70; with HLA-A*26:03, ≤ 4.70; with HLA-A*31:01 [2], 6.12; with HLA-A*26:01, ≤ 4.70; with HLA-A*11:01 [3] it was 5.24; with HLA-A*03:01 it was ≤ 4.70. This sequence had a pKd with HLA-A*30:01 of 5.22.

Turning to PLPDRSLPAL, the pKd with HLA-C*01:02 was ≥ 10.00.

With TLLESFLFY, the pKd with HLA-B*08:02 [4], in the experiment with HLA-B*08:01, with HLA-B*07:02, with HLA-A*31:01 [5], with HLA-B*46:01 and with HLA-B*27:05 was ≤ 4.70 throughout. Also, the pKd is 8.00 with HLA-A*11:01 [6]; ≤ 4.70 with HLA-B*08:03; ≤ 4.70 with HLA-A*68:02; ≤ 4.70 in the experiment with HLA-B*40:01; ≤ 4.70 with HLA-B*48:01; ≤ 4.70 with HLA-B*58:01. In the experiment with HLA-B*57:01, the pKd is ≤ 4.70.

Source of the values: the Immune Epitope Database (IEDB).
